# Measurements as given in patent US7119182 (University of California, dated 2006).
# Square brackets hold non-standard residues; d marks the D form. Ends that are not written are not given here. Cha = N[C@@H](CC1CCCCC1)C(=O)O; Mpa = O=C(O)CCS
# T1: human thrombin receptor (human, UniProt P25116 42-425)
# T1 chain: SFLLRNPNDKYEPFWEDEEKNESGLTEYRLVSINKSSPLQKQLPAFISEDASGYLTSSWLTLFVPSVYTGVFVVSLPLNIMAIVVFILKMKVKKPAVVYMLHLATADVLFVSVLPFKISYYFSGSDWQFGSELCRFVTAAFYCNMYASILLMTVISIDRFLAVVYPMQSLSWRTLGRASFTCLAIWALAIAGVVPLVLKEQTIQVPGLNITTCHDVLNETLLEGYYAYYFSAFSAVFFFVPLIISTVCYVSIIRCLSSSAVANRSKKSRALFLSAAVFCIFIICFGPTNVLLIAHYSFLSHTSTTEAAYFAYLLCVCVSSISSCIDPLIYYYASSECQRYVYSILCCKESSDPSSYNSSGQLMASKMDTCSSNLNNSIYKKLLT
# B1: SFLLQN-NH2 (peptide)
# peptide: SFLLQN-NH2
# B2: SFLL(D-Arg)-NH2 (peptide)
# peptide: SFLLX
# modifications: D-Arg at position 5; C-terminal amide (NH2)
# B3: SF(Cha) (Cha)RN-NH2 (peptide)
# peptide: SF[Cha][Cha]RN-NH2
# modifications: N-terminus assumed
# SMILES: N=C(N)NCCC[C@H](NC(=O)[C@H](CC1CCCCC1)NC(=O)[C@H](CC1CCCCC1)NC(=O)[C@H](Cc1ccccc1)NC(=O)[C@@H](N)CO)C(=O)N[C@@H](CC(N)=O)C(N)=O
# B4: SF(Cha) (Cha)RK-NH2 (peptide)
# peptide: SF[Cha][Cha]RK-NH2
# modifications: N-terminus assumed
# SMILES: N=C(N)NCCC[C@H](NC(=O)[C@H](CC1CCCCC1)NC(=O)[C@H](CC1CCCCC1)NC(=O)[C@H](Cc1ccccc1)NC(=O)[C@@H](N)CO)C(=O)N[C@@H](CCCCN)C(N)=O
# B5: SFF(Cha)RA-NH2 (peptide)
# peptide: SFF[Cha]RA-NH2
# modifications: N-terminus assumed
# SMILES: C[C@H](NC(=O)[C@H](CCCNC(=N)N)NC(=O)[C@H](CC1CCCCC1)NC(=O)[C@H](Cc1ccccc1)NC(=O)[C@H](Cc1ccccc1)NC(=O)[C@@H](N)CO)C(N)=O
# B6: SFLLKN-NH2 (peptide)
# peptide: SFLLKN-NH2
# B7: SF(Cha) (Cha)LRNPNDK (peptide)
# peptide: SF[Cha][Cha]LRNPNDK
# B8: SFLLLN-NH2 (peptide)
# peptide: SFLLLN-NH2
# B9: SFLLA-NH2 (peptide)
# peptide: SFLLA-NH2
# B10: Mpr-F(Cha) (Cha)RGPNDK-NH2 (peptide)
# peptide: [Mpa]F[Cha][Cha]RGPNDK-NH2
# SMILES: N=C(N)NCCC[C@H](NC(=O)[C@H](CC1CCCCC1)NC(=O)[C@H](CC1CCCCC1)NC(=O)[C@H](Cc1ccccc1)NC(=O)CCS)C(=O)NCC(=O)N1CCC[C@H]1C(=O)N[C@@H](CC(N)=O)C(=O)N[C@@H](CC(=O)O)C(=O)N[C@@H](CCCCN)C(N)=O
# B11: Mpr-F(Cha) (Cha)RNPNDKY-NH2 (peptide)
# peptide: [Mpa]F[Cha][Cha]RNPNDKY-NH2
# SMILES: N=C(N)NCCC[C@H](NC(=O)[C@H](CC1CCCCC1)NC(=O)[C@H](CC1CCCCC1)NC(=O)[C@H](Cc1ccccc1)NC(=O)CCS)C(=O)N[C@@H](CC(N)=O)C(=O)N1CCC[C@H]1C(=O)N[C@@H](CC(N)=O)C(=O)N[C@@H](CC(=O)O)C(=O)N[C@@H](CCCCN)C(=O)N[C@@H](Cc1ccc(O)cc1)C(N)=O
# B12: Mpr-F(Cha) (Cha)RN-NH2 (peptide)
# peptide: [Mpa]F[Cha][Cha]RN-NH2
# SMILES: N=C(N)NCCC[C@H](NC(=O)[C@H](CC1CCCCC1)NC(=O)[C@H](CC1CCCCC1)NC(=O)[C@H](Cc1ccccc1)NC(=O)CCS)C(=O)N[C@@H](CC(N)=O)C(N)=O
# B13: Mpr-F(Cha) (Cha)RFPNDK-NH2 (peptide)
# peptide: [Mpa]F[Cha][Cha]RFPNDK-NH2
# SMILES: N=C(N)NCCC[C@H](NC(=O)[C@H](CC1CCCCC1)NC(=O)[C@H](CC1CCCCC1)NC(=O)[C@H](Cc1ccccc1)NC(=O)CCS)C(=O)N[C@@H](Cc1ccccc1)C(=O)N1CCC[C@H]1C(=O)N[C@@H](CC(N)=O)C(=O)N[C@@H](CC(=O)O)C(=O)N[C@@H](CCCCN)C(N)=O
# B14: Mpr-F(Cha) (Cha)RNANDK-NH2 (peptide)
# peptide: [Mpa]F[Cha][Cha]RNANDK-NH2
# SMILES: C[C@H](NC(=O)[C@H](CC(N)=O)NC(=O)[C@H](CCCNC(=N)N)NC(=O)[C@H](CC1CCCCC1)NC(=O)[C@H](CC1CCCCC1)NC(=O)[C@H](Cc1ccccc1)NC(=O)CCS)C(=O)N[C@@H](CC(N)=O)C(=O)N[C@@H](CC(=O)O)C(=O)N[C@@H](CCCCN)C(N)=O
# B15: Mpr-F(Cha) (Cha)RNPNDA-NH2 (peptide)
# peptide: [Mpa]F[Cha][Cha]RNPNDA-NH2
# SMILES: C[C@H](NC(=O)[C@H](CC(=O)O)NC(=O)[C@H](CC(N)=O)NC(=O)[C@@H]1CCCN1C(=O)[C@H](CC(N)=O)NC(=O)[C@H](CCCNC(=N)N)NC(=O)[C@H](CC1CCCCC1)NC(=O)[C@H](CC1CCCCC1)NC(=O)[C@H](Cc1ccccc1)NC(=O)CCS)C(N)=O
# B16: Mpr-F(Cha) (Cha)RAPNDK-NH2 (peptide)
# peptide: [Mpa]F[Cha][Cha]RAPNDK-NH2
# SMILES: C[C@H](NC(=O)[C@H](CCCNC(=N)N)NC(=O)[C@H](CC1CCCCC1)NC(=O)[C@H](CC1CCCCC1)NC(=O)[C@H](Cc1ccccc1)NC(=O)CCS)C(=O)N1CCC[C@H]1C(=O)N[C@@H](CC(N)=O)C(=O)N[C@@H](CC(=O)O)C(=O)N[C@@H](CCCCN)C(N)=O
# B17: Mpr-F(Cha) (Cha)RNPNAK-NH2 (peptide)
# peptide: [Mpa]F[Cha][Cha]RNPNAK-NH2
# SMILES: C[C@H](NC(=O)[C@H](CC(N)=O)NC(=O)[C@@H]1CCCN1C(=O)[C@H](CC(N)=O)NC(=O)[C@H](CCCNC(=N)N)NC(=O)[C@H](CC1CCCCC1)NC(=O)[C@H](CC1CCCCC1)NC(=O)[C@H](Cc1ccccc1)NC(=O)CCS)C(=O)N[C@@H](CCCCN)C(N)=O
# B18: Mpr-F(Cha) (Cha)RNPNDKYE-NH2 (peptide)
# peptide: [Mpa]F[Cha][Cha]RNPNDKYE-NH2
# SMILES: N=C(N)NCCC[C@H](NC(=O)[C@H](CC1CCCCC1)NC(=O)[C@H](CC1CCCCC1)NC(=O)[C@H](Cc1ccccc1)NC(=O)CCS)C(=O)N[C@@H](CC(N)=O)C(=O)N1CCC[C@H]1C(=O)N[C@@H](CC(N)=O)C(=O)N[C@@H](CC(=O)O)C(=O)N[C@@H](CCCCN)C(=O)N[C@@H](Cc1ccc(O)cc1)C(=O)N[C@@H](CCC(=O)O)C(N)=O
# B19: Mpr-F(Cha) (Cha)RNPNDKY (peptide)
# peptide: [Mpa]F[Cha][Cha]RNPNDKY
# B20: Mpr-P(Cha) (Cha)RKPNEK-NH2 (peptide)
# peptide: [Mpa]F[Cha][Cha]RKPNEK-NH2
# B21: Mpr-F(Cha) (Cha)RNPNDK-NH2 (peptide)
# peptide: [Mpa]F[Cha][Cha]RNPNDK-NH2
# SMILES: N=C(N)NCCC[C@H](NC(=O)[C@H](CC1CCCCC1)NC(=O)[C@H](CC1CCCCC1)NC(=O)[C@H](Cc1ccccc1)NC(=O)CCS)C(=O)N[C@@H](CC(N)=O)C(=O)N1CCC[C@H]1C(=O)N[C@@H](CC(N)=O)C(=O)N[C@@H](CC(=O)O)C(=O)N[C@@H](CCCCN)C(N)=O
# B22: Mpr-F(Cha) (Cha)RNPNDK (peptide)
# peptide: [Mpa]F[Cha][Cha]RNPNDK-OH
# SMILES: N=C(N)NCCC[C@H](NC(=O)[C@H](CC1CCCCC1)NC(=O)[C@H](CC1CCCCC1)NC(=O)[C@H](Cc1ccccc1)NC(=O)CCS)C(=O)N[C@@H](CC(N)=O)C(=O)N1CCC[C@H]1C(=O)N[C@@H](CC(N)=O)C(=O)N[C@@H](CC(=O)O)C(=O)N[C@@H](CCCCN)C(=O)O
# B23: Mpr-FLLRNPNC-NH2 (peptide)
# peptide: [Mpa]FLLRNPNC-NH2
# modifications: cysteine pairing not given here
# B24: Mpr-F(Cha) (Cha)RNPND-NH2 (peptide)
# peptide: [Mpa]F[Cha][Cha]RNPND-NH2
# SMILES: N=C(N)NCCC[C@H](NC(=O)[C@H](CC1CCCCC1)NC(=O)[C@H](CC1CCCCC1)NC(=O)[C@H](Cc1ccccc1)NC(=O)CCS)C(=O)N[C@@H](CC(N)=O)C(=O)N1CCC[C@H]1C(=O)N[C@@H](CC(N)=O)C(=O)N[C@@H](CC(=O)O)C(N)=O
# B25: Mpr-F(Cha) (Cha)RKPNDK-NH2 (peptide)
# peptide: [Mpa]F[Cha][Cha]RKPNDK-NH2
# B26: Mpr-F(Cha) (Cha)RNPADK-NH2 (peptide)
# peptide: [Mpa]F[Cha][Cha]RNPADK-NH2
# SMILES: C[C@H](NC(=O)[C@@H]1CCCN1C(=O)[C@H](CC(N)=O)NC(=O)[C@H](CCCNC(=N)N)NC(=O)[C@H](CC1CCCCC1)NC(=O)[C@H](CC1CCCCC1)NC(=O)[C@H](Cc1ccccc1)NC(=O)CCS)C(=O)N[C@@H](CC(=O)O)C(=O)N[C@@H](CCCCN)C(N)=O
# Biological target: T1, human thrombin receptor
# Test: cell-based or functional assay
row,Binder,"EC50 (concentration required to elicit a 50% maximal aggregation), platelet aggregation"
1,B1,20.2 µM
2,B2,594 µM
3,B3,1.1 µM
4,B4,0.82 µM
5,B5,1.4 µM
6,B6,11.1 µM
7,B7,5.4 µM
8,B8,44.9 µM
9,B9,137 µM

# Biological target: T1, human thrombin receptor
# Test: cell-based or functional assay
# Remark: another data set of the same source
row,Binder,IC50 (50% inhibition of thrombin-induced platelet activation or aggregation)
1,B10,20 µM
2,B11,75 µM
3,B12,100 µM
4,B13,> 100 µM
5,B14,75 µM
6,B15,50 µM
7,B16,40 µM
8,B17,> 100 µM
9,B18,80 µM
10,B19,40 µM
11,B20,10 µM
12,B21,25 µM
13,B22,30 µM
14,B23,400 µM
15,B24,50 µM
16,B25,5 µM
17,B26,75 µM
